Assay results taken from the supplement of paper PMC7877785.
± gives the uncertainty stated by the source.

Assay: self-splicing fitness, log relative to wild type (ln ratio); higher = more splicing; Tetrahymena group I intron in knt gene, E. coli kanamycin selection, DiMSum; sequences stand for … in CUCUCU…GGAGGGAAAAGUUAUCAGGCAUGCACCUGGUAGCUAGUCUUUAAACCAAUAGAUUGCAUCGGUUUAAAAGGCAAGACCGUCAAAUUGCGGGAAAGGGGUCAACAGCCGUUCAGUACCAAGUCUCAGGGGAAACUUUGAGAUGGCCUUGCAAAGGGUAUGGUAAUAAGCUGACGGACAUGGUCCUAACCACGCAGCCAAGUCCUAAGUCAACAGAUCUUCUGUUGAUAUGGAUGCAGUUCACAGACUAAAUGUCGGUCGGGGAAGAUGUAUUCUUCUCAUAAGAUAUAGUCGGACCUCUCCUUAAUGGGAGCUAGCGGAUGAAGUGAUGCAACACUGGAGCCGCUGGGAACUAAUUUGUAUGCGAAAGUAUAUUGAUUAGUUUUGGAGUACUCGUGGUCG
Outline: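 Pooled colonies went to amplicon sequencing on an Illumina HiSeq 2500 after six replicate transformations. The plates were LB agar with 100 μg/mL carbenicillin, 50 μM IPTG and 0.2% rhamnose, with or without 25 μg/mL kanamycin, incubated overnight at 37°C or 30°C. The E. coli BL21(DE3) library had all eight P1ex-region intron nucleotides randomised, the intron placed in the knt kanamycin-resistance gene on pET-22b(+). DiMSum fitness is the error-weighted combination of replicate fold changes, kanamycin against none, normalised to wild type.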

Sequence	self-splicing fitness (ln) (30 °C)	self-splicing fitness (ln) (37 °C)
UAAUAGCAAUAUUACGAAUA	-2.51 ± 0.34	-1.28 ± 0.17
UAAUAGCAAUAUUACGACGA	-1.41 ± 0.13	-1.15 ± 0.14
UAAUAGCAAUAUUACGACUG	-0.137 ± 0.062	0.0819 ± 0.078
UAAUAGCAAUAUUACGAUCG	0.121 ± 0.076	0.472 ± 0.099
UAAUAGCAAUAUUACGAUGA	-2.56 ± 0.19	-1.48 ± 0.16
UAAUAGCAAUAUUACGCAGG	-1.82 ± 0.1	-1.48 ± 0.14
UAAUAGCAAUAUUACGCAUA	-1.13 ± 0.18	-0.681 ± 0.15
UAAUAGCAAUAUUACGCCAA	–	-2.37 ± 0.26
UAAUAGCAAUAUUACGCCAC	-1.32 ± 0.19	-1.89 ± 0.44
UAAUAGCAAUAUUACGCUGA	-2.81 ± 0.28	-1.23 ± 0.15
UAAUAGCAAUAUUACGGACG	-0.227 ± 0.12	0.175 ± 0.15
UAAUAGCAAUAUUACGGAUU	-2.69 ± 0.36	-1.02 ± 0.28
UAAUAGCAAUAUUACGGUGA	-3.61 ± 0.3	-2.39 ± 0.26
UAAUAGCAAUAUUACGUCGG	-2.21 ± 0.11	-1.49 ± 0.14
UAAUAGCAAUAUUACGUGUU	-1.68 ± 0.14	-1.97 ± 0.17
UAAUAGCAAUAUUACGUUAA	-3.02 ± 0.23	-2.53 ± 0.19
UACAAGCAAUAUUACGAGUG	-1.35 ± 0.064	-0.768 ± 0.071
UACAAGCAAUAUUACGAUGA	-0.422 ± 0.072	-0.314 ± 0.085
UACAAGCAAUAUUACGCCCU	-0.317 ± 0.085	-0.111 ± 0.12
UACAAGCAAUAUUACGCCGC	–	-2.06 ± 0.43
UACAAGCAAUAUUACGCCGG	-1.53 ± 0.11	-0.146 ± 0.18
UACAAGCAAUAUUACGCCUG	-0.585 ± 0.081	0.17 ± 0.11
UACAAGCAAUAUUACGCGCG	-0.759 ± 0.088	0.0647 ± 0.1
UACAAGCAAUAUUACGGAGU	-4.15 ± 0.29	-1.71 ± 0.16
UACAAGCAAUAUUACGGCGC	-1.51 ± 0.085	-0.801 ± 0.099

Sequence	self-splicing fitness (ln) (30 °C)	self-splicing fitness (ln) (37 °C)
UACAAGCAAUAUUACGGGGG	-2.66 ± 0.14	-2.02 ± 0.13
UACAAGCAAUAUUACGGUUG	-2.1 ± 0.11	-1.91 ± 0.15
UACAAGCAAUAUUACGUAAA	-2.45 ± 0.073	-1.38 ± 0.087
UACAAGCAAUAUUACGUAGA	-2.84 ± 0.14	-1.46 ± 0.13
UACAAGCAAUAUUACGUAGC	-3.5 ± 0.18	-2.09 ± 0.2
UACAAGCAAUAUUACGUAUG	-3.68 ± 0.17	-2.11 ± 0.14
UACAAGCAAUAUUACGUCUU	-3.55 ± 0.17	-1.68 ± 0.13
UACAAGCAAUAUUACGUGGC	-3 ± 0.14	-1.94 ± 0.22
UACAAGCAAUAUUACGUUCA	-0.621 ± 0.052	-0.478 ± 0.069
UACAAGCAAUAUUACGUUCG	-0.617 ± 0.074	0.321 ± 0.099
UACAAGCAAUAUUACGUUCU	-1.28 ± 0.12	-0.681 ± 0.12
UACCAGCAAUAUUACGAAAC	-2.69 ± 0.23	-2.14 ± 0.27
UACCAGCAAUAUUACGAAGG	-2.22 ± 0.11	-0.865 ± 0.12
UACCAGCAAUAUUACGAAGU	-2.48 ± 0.22	-2.74 ± 0.28
UACCAGCAAUAUUACGAGUU	-1.28 ± 0.073	-0.876 ± 0.076
UACCAGCAAUAUUACGCCAC	-3.59 ± 0.2	-3.17 ± 0.37
UACCAGCAAUAUUACGCCCA	-0.817 ± 0.1	-0.342 ± 0.14
UACCAGCAAUAUUACGCGCC	-1.46 ± 0.12	-1.1 ± 0.2
UACCAGCAAUAUUACGCGUA	-1.9 ± 0.074	-1.67 ± 0.093
UACCAGCAAUAUUACGGAAC	-3.57 ± 0.44	-3.27 ± 0.27
UACCAGCAAUAUUACGGGAA	-0.38 ± 0.087	-0.618 ± 0.08
UACCAGCAAUAUUACGGGGA	-1.24 ± 0.083	-0.746 ± 0.083
UACCAGCAAUAUUACGGGUA	-3.45 ± 0.14	-3.02 ± 0.15
UACCAGCAAUAUUACGGUGC	-3.21 ± 0.12	-2.64 ± 0.2
UACCAGCAAUAUUACGUAAG	-3.73 ± 0.15	-1.99 ± 0.15

Sequence	self-splicing fitness (ln) (30 °C)	self-splicing fitness (ln) (37 °C)
UACCAGCAAUAUUACGUAGA	-1.27 ± 0.072	-0.78 ± 0.091
UACCAGCAAUAUUACGUAUG	-2.62 ± 0.073	-1.58 ± 0.082
UACCAGCAAUAUUACGUCAA	-1.19 ± 0.079	-0.33 ± 0.086
UACCAGCAAUAUUACGUCCG	-0.95 ± 0.058	-0.0389 ± 0.083
UACCAGCAAUAUUACGUGGA	-2.89 ± 0.15	-2.08 ± 0.12
UACGAGCAAUAUUACGAAGG	–	-0.765 ± 0.3
UACGAGCAAUAUUACGAGAU	-3.99 ± 0.46	-2.99 ± 0.38
UACGAGCAAUAUUACGAGGU	-3.41 ± 0.19	-3.16 ± 0.17
UACGAGCAAUAUUACGAGUC	-2.81 ± 0.38	-3.01 ± 0.43
UACGAGCAAUAUUACGAGUU	-2.32 ± 0.2	-0.892 ± 0.23
UACGAGCAAUAUUACGCAAC	-2.85 ± 0.22	-2.19 ± 0.26
UACGAGCAAUAUUACGCAUU	-3.48 ± 0.43	-2.09 ± 0.46
UACGAGCAAUAUUACGCCAA	-2.18 ± 0.41	–
UACGAGCAAUAUUACGCCGC	-2.03 ± 0.41	-2.1 ± 0.3
UACGAGCAAUAUUACGCCUA	-1.81 ± 0.15	-0.823 ± 0.16
UACGAGCAAUAUUACGCGCA	-1.42 ± 0.19	-1.03 ± 0.17
UACGAGCAAUAUUACGCGGC	-3.65 ± 0.37	-2.28 ± 0.28
UACGAGCAAUAUUACGGAGA	-3.09 ± 0.33	-2.84 ± 0.45
UACGAGCAAUAUUACGGAUG	-2.95 ± 0.43	-1.27 ± 0.34
UACGAGCAAUAUUACGGCAG	-2.22 ± 0.23	-1.65 ± 0.21
UACGAGCAAUAUUACGGCCG	-0.704 ± 0.13	-1.01 ± 0.21
UACGAGCAAUAUUACGGUGU	–	-3.09 ± 0.29
UACGAGCAAUAUUACGUCAU	-4.92 ± 0.45	-3.92 ± 0.39
UACGAGCAAUAUUACGUCGC	-3.3 ± 0.47	-2.49 ± 0.42
UACGAGCAAUAUUACGUGCC	-2.35 ± 0.29	–

Sequence	self-splicing fitness (ln) (30 °C)	self-splicing fitness (ln) (37 °C)
UACGAGCAAUAUUACGUUAA	-3.08 ± 0.26	-1.57 ± 0.14
UACGAGCAAUAUUACGUUAC	-2.96 ± 0.42	–
UACGAGCAAUAUUACGUUGG	–	-2.22 ± 0.26
UACUAGCAAUAUUACGACCU	-2.01 ± 0.13	-0.83 ± 0.15
UACUAGCAAUAUUACGACGA	-0.687 ± 0.058	-0.172 ± 0.066
UACUAGCAAUAUUACGACUC	-1.8 ± 0.42	-0.907 ± 0.34
UACUAGCAAUAUUACGACUU	-1.27 ± 0.08	-0.271 ± 0.11
UACUAGCAAUAUUACGAUAC	-2.63 ± 0.2	-1.91 ± 0.25
UACUAGCAAUAUUACGAUCA	-1.21 ± 0.07	-0.774 ± 0.063
UACUAGCAAUAUUACGAUCG	0.0068 ± 0.092	0.387 ± 0.12
UACUAGCAAUAUUACGCAAC	-2.26 ± 0.26	-1.85 ± 0.34
UACUAGCAAUAUUACGCAAG	-2.98 ± 0.33	-1.72 ± 0.24
UACUAGCAAUAUUACGCCUC	-2.28 ± 0.24	-1.78 ± 0.28
UACUAGCAAUAUUACGCUAA	-1.31 ± 0.14	-0.697 ± 0.1
UACUAGCAAUAUUACGCUAU	-2.8 ± 0.21	-1.32 ± 0.16
UACUAGCAAUAUUACGCUUA	-1.38 ± 0.11	-0.588 ± 0.11
UACUAGCAAUAUUACGGACG	-0.258 ± 0.098	0.0809 ± 0.12
UACUAGCAAUAUUACGGAGG	-2.77 ± 0.17	-1.28 ± 0.13
UACUAGCAAUAUUACGGCCG	0.508 ± 0.14	0.00712 ± 0.17
UACUAGCAAUAUUACGUCAG	-1.72 ± 0.2	-1.43 ± 0.21
UACUAGCAAUAUUACGUCGU	-2.15 ± 0.16	-1.96 ± 0.18
UACUAGCAAUAUUACGUGAC	-2.29 ± 0.13	-1.93 ± 0.26
